These results are taken from the RNAGym collection of RNA variant scans (doi:10.7554/elife.80360).

The chains are these.
B1: Hairpin Ribozyme (parent)
chain: GUCCUCUUUCACGUGCGCGUGAAAGAGAGAAGUGAACCAGAGAAACACACGUUGUGGUAUAUUACCUGGUA

In this series the parent is B1. Kind of series: self-cleavage, relative activity (ratio to wild type); higher = more cleavage; co-transcriptional.
As to GUCCUCUUUCACGUGGGCGUGAAAGAGAGAAGUGAACCAGAGAAACACAUGUUGUGGUAUAUUACCUGGUA [C16G C50U], the self-cleavage is 0.306.
In the case of GUCCUCUUUCACGUGGGCGUGAAAGAGAGAAGUGAACCAGAGAAACACAAGUUGUGGUAUAUUACCUGGUA [C16G C50A] it was 0.198; in that of GUCCUCUUUCACGUGGGCGUGAAAGAGAGAAGUGAACCAGAGAAACACACGUGGUGGUAUAUUACCUGGUA [C16G U53G], 0.713; in that of GUCCUCUUUCACGUGGGCGUGAAAGAGAGAAGUGAACCAGAGAAACACACGUUGUGGUAUAUUGCCUGGUA [C16G A64G], 0.511.
In the case of GUCCUCUUUCACGUGGGCGUGAAAGAGAGAAGUGAACCAGAGAAACACACGUUGUGGUAUAUUCCCUGGUA [C16G A64C], the self-cleavage came to 0.161.
As to GUCCUCUUUCACGUGGGCGUGAAAGAGAGAAGUGAACCAGAGAAACACACGUUGUGGUAUAUUUCCUGGUA [C16G A64U], the self-cleavage worked out at 0.172.
Turning to GUCCUCUUUCACGUGGGCGUGAAAGAGAGAACUGAACCAGAGAAACACACGUUGUGGUAUAUUACCUGGUA [C16G G32C], the self-cleavage was determined as 0.091.
The same measure for GUCCUCUUUCACGUGAGCGUGAAAGAGAGAAGGGAACCAGAGAAACACACGUUGUGGUAUAUUACCUGGUA [C16A U33G]: 0.317; for GUCCUCUUUCACGUGGGCGUGAAAAAGAGAAGUGAACCAGAGAAACACACGUUGUGGUAUAUUACCUGGUA [C16G G25A]: 0.612.
As to GUCCUCUUUCACGUGAGCGUGAAAGAGAGAAGUGAACCAGAGAAACACACGUUGUGGUAUAUUACCUGUUA [C16A G69U], the self-cleavage was 0.334.
On to GUCCUCUUUCACGUGAGCGUGAAAGAGAGAAGUGAACCAGAGAAACACACGUUGUGAUAUAUUACCUGGUA [C16A G57A], for which the self-cleavage amounted to 0.129.
In the case of GUCCUCUUUCACGUGGGCGUGAAAGAGAGAAGUGAACCAGAGGAACACACGUUGUGGUAUAUUACCUGGUA [C16G A43G], the self-cleavage was determined as 0.0515.
In the case of GUCCUCUUUCACGUGGGCGUGAAAGAGAGAAGUGAACCAGAGCAACACACGUUGUGGUAUAUUACCUGGUA [C16G A43C] it was 0.156; in that of GUCCUCUUUCACGUGAGCGUGAAAGAGAGAAGUGAACCAGAGAAACACACGUUGUGGUAUAGUACCUGGUA [C16A U62G], 0.154; in that of GUCCUCUUUCACGUGAGCGUGAAAGAGAGAAGUGAACCAGAGAAACACACGUUGUGGUAUACUACCUGGUA [C16A U62C], 0.276.
GUCCUCUUUCACGUGGGCGUGAAAGAGAGAAGUGAACCAGAGAAACACACGUUGUGGUAUAUUACGUGGUA [C16G C66G]: the self-cleavage was 0.0535.
The same measure for GUCCUCUUUCACGUGGGCGUGAAAGAGAGAAGUGAACCAGAGAAACACACGUUGUGGUAUAUUACCUCGUA [C16G G68C]: 0.153.
The same measure for GUCCUCUUUCACGUGGGCGUGAAAGAGAGACGUGAACCAGAGAAACACACGUUGUGGUAUAUUACCUGGUA [C16G A31C]: 0.0855; for GUCCUCUUUCACGUGGGCGUGAAAGAGAGAUGUGAACCAGAGAAACACACGUUGUGGUAUAUUACCUGGUA [C16G A31U]: 0.226; for GUCCUCUUUCACGUGAGCGUGAAAGAGAGAAGUUAACCAGAGAAACACACGUUGUGGUAUAUUACCUGGUA [C16A G34U]: 1.47.
As to GUCCUCUUUCACGUGAGCGUGAAAGAGAGAAGUGAACCAGAGAAACACACGUUGUGGUAUAUUACCUGGAA [C16A U70A], the self-cleavage stood at 0.83.
In the case of GUCCUCUUUCACGUGAGCGUGAAAGAGAGAAGUGAACCAGAGAAACACACGUUGUGGUAUAUUACCUGGCA [C16A U70C], the self-cleavage was 0.978.
Regarding GUCCUCUUUCACGUGGGCGGGAAAGAGAGAAGUGAACCAGAGAAACACACGUUGUGGUAUAUUACCUGGUA [C16G U20G], the self-cleavage is 0.661.
For GUCCUCUUUCACGUGGGCGAGAAAGAGAGAAGUGAACCAGAGAAACACACGUUGUGGUAUAUUACCUGGUA [C16G U20A], the self-cleavage stood at 1.02.
Turning to GUCCUCUUUCACGUGGGCGUUAAAGAGAGAAGUGAACCAGAGAAACACACGUUGUGGUAUAUUACCUGGUA [C16G G21U], the self-cleavage stood at 0.442.
With GUCCUCUUUCACGUGGGCGUGAAAGAGAGAAGUGAUCCAGAGAAACACACGUUGUGGUAUAUUACCUGGUA [C16G A36U], the self-cleavage came out at 0.553.
For the variant GUCCUCUUUCACGUGGGCGUGAAAGAGAGUAGUGAACCAGAGAAACACACGUUGUGGUAUAUUACCUGGUA [C16G A30U], the self-cleavage was determined as 0.0915.
In the case of GUCCUCUUUCACGUGGGCGUGAAAGAGAGAAGUGAACCAGAGAAACACACGUUGUGUUAUAUUACCUGGUA [C16G G57U], the self-cleavage amounted to 0.119.
Consider GUCCUCUUUCACGUGGGCGUGAAAGAGAGAAGUGAACCAGAGAAACACGCGUUGUGGUAUAUUACCUGGUA [C16G A49G], for which the self-cleavage is 0.544.
The same measure for GUCCUCUUUCACGUGGGCGUGAUAGAGAGAAGUGAACCAGAGAAACACACGUUGUGGUAUAUUACCUGGUA [C16G A23U]: 0.718; for GUCCUCUUUCACGUGGGCGUGAAAGAGAGAAGAGAACCAGAGAAACACACGUUGUGGUAUAUUACCUGGUA [C16G U33A]: 0.105; for GUCCUCUUUCACGUGGGCGUGAAAGAGAGAAGGGAACCAGAGAAACACACGUUGUGGUAUAUUACCUGGUA [C16G U33G]: 0.12.
On to GUCCUCUUUCACGUGAGCGUGAAAGAGAGAAGUGAACCAGAGAAACACACGUUGUGGGAUAUUACCUGGUA [C16A U58G], for which the self-cleavage was 0.736.
For the variant GUCCUCUUUCACGUGGGCGUGAAAGAGAGAAGUGAACCAGAGAAACACACGUUGUGGUAUUUUACCUGGUA [C16G A61U], the self-cleavage came out at 0.253.
GUCCUCUUUCACGUGGGCGUGAAAGAGAGAAGUGAACCAGAGAAACACACGUUGUGGUAUGUUACCUGGUA [C16G A61G]: the self-cleavage was determined as 0.151.
As for GUCCUCUUUCACGUGGGCGUGAAAGAGAGAAGUGAACCAGAGAAACGCACGUUGUGGUAUAUUACCUGGUA [C16G A47G], the self-cleavage worked out at 0.187.
Consider GUCCUCUUUCACGUGAGCGUGAAAGAGAGAAGUGAACCAGAGAAACACACGGUGUGGUAUAUUACCUGGUA [C16A U52G], for which the self-cleavage amounted to 0.879.
Consider GUCCUCUUUCACGUGAGCGUGAAAGAGAGAAGUGAACCAGAGAAACACACGUUGUGGUAUAUCACCUGGUA [C16A U63C], for which the self-cleavage turned out to be 0.0962.
